We go through 2 molecules from publication PMC5540134 (Biochemistry, 2017).

The target in the experiment is T1, WT-UreE dimer (Helicobacter pylori urease accessory protein UreE) (Helicobacter pylori, UniProt Q09064 1-170).
T1 sequence: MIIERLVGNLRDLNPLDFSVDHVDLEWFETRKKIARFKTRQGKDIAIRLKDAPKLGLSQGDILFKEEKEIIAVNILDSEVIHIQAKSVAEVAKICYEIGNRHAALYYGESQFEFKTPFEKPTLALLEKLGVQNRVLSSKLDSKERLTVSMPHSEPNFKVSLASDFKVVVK
Kind of experiment: ITC. (In ITC the heat of successive injections is recorded.)

B1: L2*-HypA (Met1_His2insLeu variant of Helicobacter pylori HypA) (natural protein)
chain: MLHEYSVVSSLIALCEEHAKKNQAHKIERVVVGIGERSAMDKSLFVSAFETFREESLVCKDAILDIVDEKVELECKDCSHVFKPNALDYGVCEKCHSKNVIITQGNEMRLLSLEMLAE
For B1, the Kd (commonly the free concentration of one partner at which half of the binding sites on the other are occupied at equilibrium, for simple one-to-one binding) is 690 ± 110 nM; the dH is -3.86 ± 0.06 kcal/mol; the stoichiometry N (usually a count of units in the complex or per binding partner) amounted to 1.6 ± 0.2 HypA per UreE dimer.

B2: WT-HypA (Helicobacter pylori hydrogenase maturation protein HypA, unmodified N-terminus) (natural protein)
chain: MHEYSVVSSLIALCEEHAKKNQAHKIERVVVGIGERSAMDKSLFVSAFETFREESLVCKDAILDIVDEKVELECKDCSHVFKPNALDYGVCEKCHSKNVIITQGNEMRLLSLEMLAE
On to B2, for which the dissociation constant Kd was found to be 960 ± 90 nM, the dH is -6.27 ± 0.06 kcal/mol and the “stoichiometry N” value turned out to be 1.5 ± 0.1 HypA per UreE dimer.
